{"source": "paper PMC9927256", "about": "“Structural and Functional Characterization of Rv0792c from Mycobacterium tuberculosis: Identifying Small Molecule Inhibitor against HutC Protein” (Microbiology Spectrum, 2022)", "key": {"[1]": {"biological_target": "T1, Rv0792c R49A R49A (Mycobacterium tuberculosis) (UniProt O86331)", "T1 sequence": "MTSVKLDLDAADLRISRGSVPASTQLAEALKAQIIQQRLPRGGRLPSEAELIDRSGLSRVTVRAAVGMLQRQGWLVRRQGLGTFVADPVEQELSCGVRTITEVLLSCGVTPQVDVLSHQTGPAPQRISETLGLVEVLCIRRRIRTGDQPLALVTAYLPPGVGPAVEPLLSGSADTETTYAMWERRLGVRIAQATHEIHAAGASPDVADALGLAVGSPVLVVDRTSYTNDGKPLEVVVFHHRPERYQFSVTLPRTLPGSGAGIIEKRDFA", "experiment": "ALISA (plate-immobilized protein)"}, "[2]": {"biological_target": "T2, Rv0792c G80D G80D (Mycobacterium tuberculosis) (UniProt O86331)", "T2 sequence": "T1 sequence with A49R, G80D", "experiment": "ALISA (plate-immobilized protein)"}}, "note": "Numbering of substitutions follows the chain as printed."}
{"sequence": "TCTAGTCATTCGTCATAATCCCATCTGTTTCTTCCTCCTTCCGT [Rv0792c_2 aptamer (also Rv0729c_2)]", "values": [{"measurement": "Kd", "setting": "[1]", "result": 74, "unit": "nM"}, {"measurement": "Kd", "setting": "[2]", "result": 120, "unit": "nM"}]}
